# Measurements published in patent US20260209334A1 (MAX PLANCK GESELLSCHAFT ZUR F RDERUNG DER WISSENSCHAFTEN E V, published 2026).
# Where two headings read alike, the source gives them in different places.
# Key:
# [1] = target: T1, human IL-17F with C-terminal Avi-tag, biotinylated, immobilized on BLI sensors (human, UniProt Q96PD4 31-163, biotin on the C-terminal Avi-tag (BirA)); assay: BLI, biotinylated IL-17F immobilized on streptavidin sensors, monovalent VHH as analyte (20, 100 nM), 2:1 heterogenous fit, low affinity component
# T1 construct: also called biotinylated IL-17F; not shown: C-terminal Avi-tag
# T1 sequence: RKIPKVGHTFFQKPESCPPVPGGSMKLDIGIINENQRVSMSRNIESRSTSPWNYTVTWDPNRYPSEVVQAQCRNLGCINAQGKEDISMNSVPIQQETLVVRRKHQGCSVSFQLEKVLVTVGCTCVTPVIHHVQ
# [2] = target: T2, recombinant human IL-17A (produced in HEK cells, Proteintech HZ-1113) (human, UniProt Q16552 24-155); assay: cell-based or functional assay
# [3] = target: recombinant human IL-17A/F (produced in CHO cells, R&D Systems 5837-IL) (human, UniProt Q16552 24-155; Q96PD4 31-163, limits assumed); assay: cell-based or functional assay
# Chain of recombinant human IL-17A/F (produced in CHO cells, R&D Systems 5837-IL) (Q16552 24-155 limits assumed, chain 1 of 2, one chain of several): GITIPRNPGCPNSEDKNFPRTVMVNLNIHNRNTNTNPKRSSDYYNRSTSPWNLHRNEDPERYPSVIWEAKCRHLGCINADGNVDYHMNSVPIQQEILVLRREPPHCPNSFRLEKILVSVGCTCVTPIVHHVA
# [4] = target: T3, recombinant human IL-17F (produced in HEK cells, Proteintech HZ-1116) (human, UniProt Q96PD4 31-163); assay: cell-based or functional assay
# T3 sequence (looked up): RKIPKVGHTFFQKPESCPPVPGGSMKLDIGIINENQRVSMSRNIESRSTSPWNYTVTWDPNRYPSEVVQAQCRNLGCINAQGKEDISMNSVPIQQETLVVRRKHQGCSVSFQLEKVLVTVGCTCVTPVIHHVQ
# [5] = target: T4, human IL-17A with C-terminal Avi-tag, biotinylated, immobilized on BLI sensors (human, UniProt Q16552 24-155, biotin on the C-terminal Avi-tag (BirA)); assay: BLI, biotinylated IL-17A immobilized on streptavidin sensors, monovalent VHH as analyte (20, 100 nM), 2:1 heterogenous fit, low affinity component
# T4 construct: also called biotinylated IL-17A; not shown: C-terminal Avi-tag
# [6] = target: T1, human IL-17F with C-terminal Avi-tag, …; assay: BLI, biotinylated IL-17F immobilized, monovalent VHH as analyte; 2:1 heterogenous model, high affinity component
# [7] = target: T3, recombinant human IL-17F (produced in …); assay: cell-based or functional assay; remark: listed apart in the source
# [8] = target: T4, human IL-17A with C-terminal Avi-tag, …; assay: BLI, biotinylated IL-17A immobilized on streptavidin sensors, monovalent VHH as analyte (25, 50, 100 nM), 2:1 heterogenous fit, high affinity component
# [9] = target: T4, human IL-17A with C-terminal Avi-tag, …; assay: BLI, biotinylated IL-17A immobilized, monovalent VHH as analyte; 2:1 heterogenous model, high affinity component
# [10] = target: T4, human IL-17A with C-terminal Avi-tag, …; assay: BLI, biotinylated IL-17A immobilized on streptavidin sensors, monovalent VHH as analyte (25, 50, 100 nM), mass transport fit
# [11] = target: T3, recombinant human IL-17F (produced in …); assay: cell-based or functional assay; remark: listed apart in the source
# [12] = target: T2, recombinant human IL-17A (produced in …); assay: cell-based or functional assay; remark: listed apart in the source
# [13] = target: T1, human IL-17F with C-terminal Avi-tag, …; assay: BLI, biotinylated IL-17F immobilized, monovalent VHH as analyte
# [14] = target: T4, human IL-17A with C-terminal Avi-tag, …; assay: BLI, biotinylated IL-17A immobilized, monovalent VHH as analyte
# [15] = target: T3, recombinant human IL-17F (produced in …); assay: cell-based or functional assay; remark: listed apart in the source
KD2 [1] [nM],"Neutralization potency, ranking from 1 = the best to 4 (HEK-Blue IL-17 reporter cells) [2] [rank]","Neutralization potency, ranking from 1 = the best to 4 (HEK-Blue IL-17 reporter cells) [3] [rank]","Neutralization potency, ranking from 1 = the best to 4 (HEK-Blue IL-17 reporter cells) [4] [rank]",KD2 [5] [nM],Kd [6] [nM],"IC50 (read off the curve), SEAP reporter, HEK-Blue IL-17 cells, 0.85 nM IL-17F [7] [nM]",Kd [8] [nM],Kd [9] [nM],Kd [10] [nM],"IC50 (read off the curve), SEAP reporter, HEK-Blue IL-17 cells, 0.85 nM IL-17F [11] [nM]","IC50 (read off the curve), SEAP reporter, HEK-Blue IL-17 cells, 0.17 nM IL-17A [12] [nM]",Kd [13] [nM],Kd [14] [nM],"IC50 (read off the curve), SEAP reporter, HEK-Blue IL-17 cells, 0.85 nM IL-17F [15] [µg/mL]",Binder
,4,1,1,,,,,,,,~2,0.1,2,,"Bm44C09 (VHH, Class A, second generation) VHH: QVQLVESGGGLVQAGGSLRLSCAASGLAVSSYAMGWFRQAPGKEREFVAAISWISGGTKYADSVKDRFTMSRDNAKKQVYLEMNSLKPEDTAVYYCNDMPYGLDTRMDDYKYWGQGIQVTVSS"
,2,2,4,,,,,,,,,12,0.15,~0.06,"VHH664 (VHH, Control VHH of Ablynx, disclosed in WO2012156219) VHH: EVQLVESGGGLVQAGGSLRLSCAASGRTYDAMGWLRQAPGKEREFVAAISGSGDDTYYADSVKGRFTISKDNAGITMYLQMNSLKPEDTAVYYCATRRGLYYVWDSNDYENWGQGTQVTVSS"

# More lines, now with the values behind:
Binder,KD2 [1] [nM],"Neutralization potency, ranking from 1 = the best to 4 (HEK-Blue IL-17 reporter cells) [2] [rank]","Neutralization potency, ranking from 1 = the best to 4 (HEK-Blue IL-17 reporter cells) [3] [rank]","Neutralization potency, ranking from 1 = the best to 4 (HEK-Blue IL-17 reporter cells) [4] [rank]",KD2 [5] [nM],Kd [6] [nM],"IC50 (read off the curve), SEAP reporter, HEK-Blue IL-17 cells, 0.85 nM IL-17F [7] [nM]",Kd [8] [nM],Kd [9] [nM],Kd [10] [nM],"IC50 (read off the curve), SEAP reporter, HEK-Blue IL-17 cells, 0.85 nM IL-17F [11] [nM]","IC50 (read off the curve), SEAP reporter, HEK-Blue IL-17 cells, 0.17 nM IL-17A [12] [nM]",Kd [13] [nM],Kd [14] [nM],"IC50 (read off the curve), SEAP reporter, HEK-Blue IL-17 cells, 0.85 nM IL-17F [15] [µg/mL]"
"Re42F08 (VHH, Class B, first generation) VHH: QVQLVESGGGLVKAGGSLRLSCVVSGHTSEISAMGWYRQAPGKQRELVALITSRSGDTHYSDSVKGRFSISRDNAKNTMYLQMNSLNPDDTAVYYCVHNEPGHLYMAQGTQVTVSS",60,2,3,4,60,6,~5,1,1,,,,,,
"Bm18F11 (VHH, Class A, first generation) VHH: QVQLVESGGDLVQAGGSLRLSCAASGLTGSSYAMGWFRQAPGKEREFVAAISWISGDTKYTDSVKGRFTMSRDNAKKQVYLEMNSLKPEDTAVYYCNDMPYGLDTRMDEYVYWGQGTQVTVSS",,,,,,,,,,1,~5,,,,
